Experimental data as given in paper PMC3085011 (2011).

Molecular target: T1, CNA1 (Saccharomyces cerevisiae, UniProt P23287)
T1 chain: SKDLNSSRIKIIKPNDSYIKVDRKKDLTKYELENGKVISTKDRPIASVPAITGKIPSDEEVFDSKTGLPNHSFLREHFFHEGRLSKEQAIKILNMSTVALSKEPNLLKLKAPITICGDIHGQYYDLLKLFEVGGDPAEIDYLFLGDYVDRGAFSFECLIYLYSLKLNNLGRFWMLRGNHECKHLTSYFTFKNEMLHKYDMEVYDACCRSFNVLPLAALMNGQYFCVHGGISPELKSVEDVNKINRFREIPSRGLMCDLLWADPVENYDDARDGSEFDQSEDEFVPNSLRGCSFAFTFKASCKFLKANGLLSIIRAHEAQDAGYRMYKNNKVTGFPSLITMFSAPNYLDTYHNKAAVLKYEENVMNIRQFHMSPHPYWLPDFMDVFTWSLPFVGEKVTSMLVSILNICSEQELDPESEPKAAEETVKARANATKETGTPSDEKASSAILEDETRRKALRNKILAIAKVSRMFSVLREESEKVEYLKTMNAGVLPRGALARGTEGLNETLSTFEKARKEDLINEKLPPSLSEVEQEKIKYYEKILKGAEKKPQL
Test: SPROX

- Kd: 120 nM
B1: CPR1 (protein)
chain: not shown
modifications: cyclosporin A
